Measurements: patent US20130273029A1 (Novartis, published 2013)
Changes are numbered by the printed parent chain.

B1: MOR13752 (antibody, human IgG1, kappa, V domains shown)
VH: QVQLVQSGAEVKKPGESLKISCKGSGYSFTNYWVAWVRQMPGKGLEWMGIIYPGGSDTIYSPSFQGQVTISADKSISTAYLQWSSLKASDTAMYYCARVHIIQPPSAWSYNAMDVWGQGTLVTVSS
VL: DIQMTQSPSSLSASVGDRVTITCRASQSISTYLNWYQQKPGKAPKLLIFGASNLQSGVPSRFSGSGSGTDFTLTISSLQPEDFATYYCQQSITELFTFGQGTKVEIKR
notes: tested as IgG
B2: MOR12923 (antibody, human IgG1, kappa, V domains shown)
VH: B1 VH with Y32S, G55N
VL: B1 VL with I92M, T93Y, E94L, L95P
B3: MOR12924 (antibody, human IgG1, kappa, V domains shown)
VH: B1 VH with Y32S, G55N
VL: B1 VL with I92V, T93W, L95P, F96A
B4: MOR13754 (antibody, human IgG1, kappa, V domains shown)
VH: B1 VH with N31S
VL: B1 VL
notes: tested as IgG
B5: MOR13765 (antibody, human IgG1, kappa, V domains shown)
VH: B1 VH with N31G, Y32S, G55T
VL: B1 VL
notes: tested as IgG
B6: MOR13762 (antibody, human IgG1, kappa, V domains shown)
VH: B1 VH with Y32T, G55Q
VL: B1 VL
notes: tested as IgG
B7: MOR13763 (antibody, human IgG1, kappa, V domains shown)
VH: B1 VH with N31S, G55Q
VL: B1 VL
notes: tested as IgG
B8: MOR13758 (antibody, human IgG1, kappa, V domains shown)
VH: B1 VH with N31L, G55Q
VL: B1 VL
notes: tested as IgG
B9: MOR13756 (antibody, human IgG1, kappa, V domains shown)
VH: B1 VH with N31L, Y32T, G55Q
VL: B1 VL
notes: tested as IgG
B10: MOR13755 (antibody, human IgG1, kappa, V domains shown)
VH: B1 VH with N31T, G55Q
VL: B1 VL
notes: tested as IgG
B11: MOR13766 (antibody, human IgG1, kappa, V domains shown)
VH: B1 VH with N31T, Y32T, G55S
VL: B1 VL
notes: tested as IgG
B12: MOR13750 (antibody, human IgG1, kappa, V domains shown)
VH: B1 VH with N31S, Y32S
VL: B1 VL
notes: tested as IgG
B13: MOR13759 (antibody, human IgG1, kappa, V domains shown)
VH: B1 VH with N31T, Y32T, G55L
VL: B1 VL
notes: tested as IgG
B14: MOR13761 (antibody, human IgG1, kappa, V domains shown)
VH: B1 VH with N31Q, Y32T, G55Q
VL: B1 VL
notes: tested as IgG

The binders below were run against T1, Human HER3, endogenous, on human cancer cell lines (SK-Br-3, MCF7, BT-474) (human, UniProt P21860 20-1342) (assay: cell-based or functional assay).
T1 sequence (P21860 20-1342): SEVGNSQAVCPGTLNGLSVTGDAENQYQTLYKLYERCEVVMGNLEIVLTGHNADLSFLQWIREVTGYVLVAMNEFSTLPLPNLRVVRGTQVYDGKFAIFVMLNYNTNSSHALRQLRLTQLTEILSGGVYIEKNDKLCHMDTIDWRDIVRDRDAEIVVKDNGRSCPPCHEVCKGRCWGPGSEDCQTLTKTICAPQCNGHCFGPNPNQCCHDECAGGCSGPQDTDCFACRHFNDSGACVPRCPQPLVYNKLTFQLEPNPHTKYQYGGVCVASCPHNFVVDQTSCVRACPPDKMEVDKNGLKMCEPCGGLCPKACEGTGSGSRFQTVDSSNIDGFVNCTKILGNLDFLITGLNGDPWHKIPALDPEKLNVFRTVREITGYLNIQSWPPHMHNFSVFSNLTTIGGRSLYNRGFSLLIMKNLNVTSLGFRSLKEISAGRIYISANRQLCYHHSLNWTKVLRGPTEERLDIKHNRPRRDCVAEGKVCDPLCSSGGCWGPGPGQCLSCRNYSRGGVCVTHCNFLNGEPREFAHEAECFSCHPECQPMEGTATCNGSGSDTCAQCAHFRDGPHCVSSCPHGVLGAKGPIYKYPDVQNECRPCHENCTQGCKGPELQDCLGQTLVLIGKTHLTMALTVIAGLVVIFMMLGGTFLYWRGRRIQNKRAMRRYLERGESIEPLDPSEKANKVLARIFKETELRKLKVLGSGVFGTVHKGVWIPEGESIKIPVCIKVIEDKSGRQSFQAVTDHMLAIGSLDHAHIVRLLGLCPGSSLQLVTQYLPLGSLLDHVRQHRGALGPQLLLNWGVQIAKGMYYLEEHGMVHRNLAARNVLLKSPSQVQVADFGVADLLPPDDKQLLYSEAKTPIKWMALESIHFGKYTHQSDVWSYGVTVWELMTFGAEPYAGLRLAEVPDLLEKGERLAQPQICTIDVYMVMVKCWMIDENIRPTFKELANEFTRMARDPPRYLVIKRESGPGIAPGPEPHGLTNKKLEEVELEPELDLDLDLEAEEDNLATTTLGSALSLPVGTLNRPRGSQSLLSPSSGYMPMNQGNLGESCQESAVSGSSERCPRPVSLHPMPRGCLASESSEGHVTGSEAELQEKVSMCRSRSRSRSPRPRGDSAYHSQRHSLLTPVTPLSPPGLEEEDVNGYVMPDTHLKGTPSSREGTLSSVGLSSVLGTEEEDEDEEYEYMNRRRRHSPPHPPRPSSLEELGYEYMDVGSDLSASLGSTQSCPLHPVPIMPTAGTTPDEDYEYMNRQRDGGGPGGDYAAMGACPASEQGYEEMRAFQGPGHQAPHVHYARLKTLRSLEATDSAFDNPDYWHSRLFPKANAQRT

Row | BT474 pHER3 % inhibition [%] | BT474 pHER3 IC50 [pM] | SK-Br-3 pHER3 % inhibition [%] | SK-Br-3 pHER3 IC50 [pM] | MCF7 pHER3 % inhibition [%] | MCF7 pHER3 IC50 [pM] | Binder
1 | 45 | 4240 | 71 | 1000 | – | – | B1
2 | 61 | 1050 | 74 | 70 | 83 | 540 | B2
3 | 62 | 1590 | 76 | 123 | 80 | 631 | B3
4 | 49 | 3900 | 63 | 606 | – | – | B4
5 | 61 | 806 | 79 | 227 | 71 | 374 | B5
6 | 41 | 271 | 70 | 90 | – | – | B6
7 | 60 | 19500 | 77 | 107 | – | – | B7
8 | 67 | 382 | 77 | 91 | – | – | B8
9 | 66 | 322 | 78 | 95 | – | – | B9
10 | 73 | 657 | 80 | 217 | 79 | 331 | B10
11 | 62 | 708 | 79 | 106 | 72 | 354 | B11
12 | 44 | 6680 | 60 | 1440 | – | – | B12
13 | 70 | 431 | 77 | 124 | 74 | 277 | B13
14 | 56 | 364 | 76 | 62 | – | – | B14

Molecular target: T1, Human HER3, endogenous, on human cancer …
Assay: cell-based or functional assay
Remark: another data set of the same source

Row | BT-474 pAkt (S473) % inhibition [%] | BT-474 pAkt (S473) IC50 [pM] | SK-Br-3 pAkt (S473) % inhibition [%] | SK-Br-3 pAkt (S473) IC50 [pM] | MCF7 pAkt (S473) % inhibition [%] | MCF7 pAkt (S473) IC50 [pM] | Binder
15 | 76 | 39100 | 86 | 734 | – | – | B1
16 | 64 | – | 84 | 465 | – | – | B4
17 | 73 | 1180 | 90 | 113 | 71 | 412 | B5
18 | 86 | 291 | 86 | 63 | – | – | B6
19 | 76 | 378 | 84 | 76 | – | – | B7
20 | 78 | 371 | 90 | 110 | – | – | B8
21 | 86 | 189 | 90 | 107 | – | – | B9
22 | 79 | 645 | 91 | 131 | 79 | 468 | B10
23 | 75 | 1190 | 91 | 89 | 67 | 296 | B11
24 | 60 | 17800 | 83 | 1640 | – | – | B12
25 | 81 | 274 | 91 | 60 | 76 | 248 | B13
26 | 83 | – | 86 | 52 | – | – | B14

Molecular target: T1, Human HER3, endogenous, on human cancer …
Assay: cell-based or functional assay
Remark: another data set of the same source

Row | BT-474 proliferation % inhibition [%] | BT-474 proliferation IC50 [nM] | SK-Br-3 proliferation % inhibition [%] | SK-Br-3 proliferation IC50 [nM] | MCF7 proliferation % inhibition [%] | MCF7 proliferation IC50 [nM] | Binder
27 | 22 | 42.8 | 40 | 3 | – | – | B1
28 | – | – | 42 | 0.062 | 29 | 0.266 | B2
29 | – | – | 44 | 0.533 | 23 | 0.497 | B3
30 | 17 | 8.01 | 40 | 6.47 | – | – | B4
31 | 27 | 3.1 | 46 | 0.732 | – | – | B5
32 | 37 | 0.546 | 45 | 0.053 | – | – | B6
33 | 36 | 0.671 | 49 | 0.326 | – | – | B7
34 | 38 | 0.516 | 47 | 0.133 | – | – | B8
35 | 42 | 0.71 | 50 | 0.097 | – | – | B9
36 | 41 | 0.738 | 52 | 0.207 | – | – | B10
37 | 37 | 2.56 | 45 | 2.35 | 53 | – | B11
38 | 21 | 13.8 | 34 | 5.47 | – | – | B12
39 | 35 | 6.26 | 41 | 0.23 | 49 | 0.151 | B13
40 | 36 | 0.56 | 48 | 0.134 | – | – | B14

The binders below were run against T2, Hu HER3: CD33-[Human HER3, residues 20-640]-TAG (human, UniProt P21860 20-640) (assay: SET, IgG vs soluble HER3-Tag).
T2 construct: also called hu HER3-Tag; HER3-Tag; not shown: C-terminal TAG (e.g., FLAG TAG)
T2 sequence (P21860 20-640): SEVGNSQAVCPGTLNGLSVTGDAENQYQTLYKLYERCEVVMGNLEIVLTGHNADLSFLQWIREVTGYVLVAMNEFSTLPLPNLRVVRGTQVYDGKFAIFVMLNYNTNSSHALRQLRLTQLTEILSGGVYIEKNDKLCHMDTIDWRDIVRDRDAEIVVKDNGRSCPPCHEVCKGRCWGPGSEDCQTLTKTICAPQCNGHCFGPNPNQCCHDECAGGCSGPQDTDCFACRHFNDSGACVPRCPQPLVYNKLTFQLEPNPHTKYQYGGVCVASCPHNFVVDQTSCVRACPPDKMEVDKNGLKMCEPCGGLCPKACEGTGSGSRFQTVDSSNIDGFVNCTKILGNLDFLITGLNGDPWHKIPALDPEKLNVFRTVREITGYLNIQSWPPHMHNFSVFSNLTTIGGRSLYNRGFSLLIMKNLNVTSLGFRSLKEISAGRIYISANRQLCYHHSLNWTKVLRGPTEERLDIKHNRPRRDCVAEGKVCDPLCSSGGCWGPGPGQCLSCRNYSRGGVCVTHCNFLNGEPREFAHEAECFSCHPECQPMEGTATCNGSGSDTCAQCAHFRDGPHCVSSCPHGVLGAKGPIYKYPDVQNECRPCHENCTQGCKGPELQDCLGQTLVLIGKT
Experimental: Affinity determination in solution was essentially performed as previously described (Friguet et al., (1985) J Immunol Methods 77:305-19). In order to improve the sensitivity and accuracy of the SET method, it was transferred from classical ELISA to ECL based technology (Haenel et al., (2005) Anal Biochem 339:182-84).
The data was evaluated with XLfit software (ID Business Solutions) applying customized fitting models.
Antibody affinity was determined by solution equilibrium titration (SET) as described above. The results are summarized in Table 3 and example titration curves for MOR12616 and MOR12925 are contained in FIG. 1.

Row | Kd [nM] | Binder
41 | 0.096 | B1
42 | 0.29 | B4
43 | 0.064 | B5
44 | 0.025 | B6
45 | 0.027 | B7
46 | 0.021 | B8
47 | 0.025 | B9
48 | 0.024 | B10
49 | 0.054 | B11
50 | 0.16 | B12
51 | 0.051 | B13
52 | 0.028 | B14
